According to the supplement of paper PMC7125110:
± gives the standard error. This sample holds only a part of the variants without activity.

B1: glmS ribozyme (parent)
chain: AUAAAAGCGCCAGAACUACAGAAAUGUAGUUGACGAGGAGGAGGUUUAUCGAAUUUUCGGCGGAUGCCUCCAAA

Legend:
Conditions in all cases: with glucosamine-6-phosphate
glucosamine-6-phosphate [1] = variants of: B1; test: self-cleavage kobs at 640 uM GlcN6P; higher = faster cleavage; RNA array
In short: (§1)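 Ribozyme variants carrying barcodes were transcribed in situ on sequenced MiSeq chips by E. coli RNA polymerase and tracked at 37 °C with a hybridised Cy3 probe. They were exposed to 40 μM to 10 mM glucosamine-6-phosphate in HEPES/KCl/Mg(OAc)2 buffer. kobs came from exponential decay fits of normalised per-tile medians, and kcat and KM from weighted Michaelis–Menten fits.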

glucosamine-6-phosphate [2] = variants of: B1; test: self-cleavage kobs at 2500 uM GlcN6P; higher = faster cleavage; RNA array
In short: as §1

glucosamine-6-phosphate [3] = variants of: B1; test: self-cleavage kobs at 10000 uM GlcN6P; higher = faster cleavage; RNA array
In short: as §1

G40A U57C C58A C61U
self-cleavage kobs at 640 uM GlcN6P (glucosamine-6-phosphate [1]): < 1e-05 s⁻¹

A33C G59A C67U
self-cleavage kobs at 640 uM GlcN6P (glucosamine-6-phosphate [1]): < 1e-05 s⁻¹

A14G C16U U45C
self-cleavage kobs at 640 uM GlcN6P (glucosamine-6-phosphate [1]): 0.000986 ± 0.00024 s⁻¹
self-cleavage kobs at 2500 uM GlcN6P (glucosamine-6-phosphate [2]): 0.00371 ± 0.00065 s⁻¹

C11U G43A A48U A53C C61U
self-cleavage kobs at 640 uM GlcN6P (glucosamine-6-phosphate [1]): < 1e-05 s⁻¹
self-cleavage kobs at 2500 uM GlcN6P (glucosamine-6-phosphate [2]): < 1e-05 s⁻¹

C16A U30G U45G G60A G66U
self-cleavage kobs at 640 uM GlcN6P (glucosamine-6-phosphate [1]): < 1e-05 s⁻¹

A15U A33U C70U
self-cleavage kobs at 640 uM GlcN6P (glucosamine-6-phosphate [1]): < 1e-05 s⁻¹

A12C G13U A36U
self-cleavage kobs at 640 uM GlcN6P (glucosamine-6-phosphate [1]): < 1e-05 s⁻¹
self-cleavage kobs at 2500 uM GlcN6P (glucosamine-6-phosphate [2]): < 1e-05 s⁻¹

G7U G35U G38C
self-cleavage kobs at 640 uM GlcN6P (glucosamine-6-phosphate [1]): < 1e-05 s⁻¹
self-cleavage kobs at 2500 uM GlcN6P (glucosamine-6-phosphate [2]): < 1e-05 s⁻¹
self-cleavage kobs at 10000 uM GlcN6P (glucosamine-6-phosphate [3]): < 1e-05 s⁻¹

G9U G32C A42G U45G
self-cleavage kobs at 640 uM GlcN6P (glucosamine-6-phosphate [1]): < 1e-05 s⁻¹
self-cleavage kobs at 2500 uM GlcN6P (glucosamine-6-phosphate [2]): < 1e-05 s⁻¹

G38A G44U C50A
self-cleavage kobs at 640 uM GlcN6P (glucosamine-6-phosphate [1]): < 1e-05 s⁻¹

G35C G38A A64G
self-cleavage kobs at 640 uM GlcN6P (glucosamine-6-phosphate [1]): < 1e-05 s⁻¹
self-cleavage kobs at 2500 uM GlcN6P (glucosamine-6-phosphate [2]): < 1e-05 s⁻¹

G13A A42C G44U
self-cleavage kobs at 640 uM GlcN6P (glucosamine-6-phosphate [1]): < 1e-05 s⁻¹

A36C G40U U54A G63U
self-cleavage kobs at 640 uM GlcN6P (glucosamine-6-phosphate [1]): < 1e-05 s⁻¹
self-cleavage kobs at 2500 uM GlcN6P (glucosamine-6-phosphate [2]): < 1e-05 s⁻¹
self-cleavage kobs at 10000 uM GlcN6P (glucosamine-6-phosphate [3]): < 1e-05 s⁻¹

C16A G38U U47A
self-cleavage kobs at 640 uM GlcN6P (glucosamine-6-phosphate [1]): < 1e-05 s⁻¹

G29A G38C C70A
self-cleavage kobs at 640 uM GlcN6P (glucosamine-6-phosphate [1]): 6.65e-05 ± 3.1e-05 s⁻¹

U31G G41A U46G
self-cleavage kobs at 640 uM GlcN6P (glucosamine-6-phosphate [1]): 7.29e-05 ± 2.3e-05 s⁻¹
self-cleavage kobs at 2500 uM GlcN6P (glucosamine-6-phosphate [2]): 0.00021 ± 5.3e-05 s⁻¹

C34U U46G C68G
self-cleavage kobs at 640 uM GlcN6P (glucosamine-6-phosphate [1]): 0.000568 ± 0.00025 s⁻¹
self-cleavage kobs at 2500 uM GlcN6P (glucosamine-6-phosphate [2]): < 1e-05 s⁻¹

G41U U47G A53U
self-cleavage kobs at 640 uM GlcN6P (glucosamine-6-phosphate [1]): 9.96e-05 ± 2.8e-05 s⁻¹
self-cleavage kobs at 2500 uM GlcN6P (glucosamine-6-phosphate [2]): 0.000276 ± 6.9e-05 s⁻¹

U2C G32U G44A U47G
self-cleavage kobs at 640 uM GlcN6P (glucosamine-6-phosphate [1]): < 1e-05 s⁻¹
self-cleavage kobs at 2500 uM GlcN6P (glucosamine-6-phosphate [2]): < 1e-05 s⁻¹

A6C A36C U56G
self-cleavage kobs at 640 uM GlcN6P (glucosamine-6-phosphate [1]): < 1e-05 s⁻¹
self-cleavage kobs at 2500 uM GlcN6P (glucosamine-6-phosphate [2]): < 1e-05 s⁻¹

A6U G37U A48C C67G
self-cleavage kobs at 640 uM GlcN6P (glucosamine-6-phosphate [1]): < 1e-05 s⁻¹
self-cleavage kobs at 2500 uM GlcN6P (glucosamine-6-phosphate [2]): < 1e-05 s⁻¹

A39U C67A C68U
self-cleavage kobs at 640 uM GlcN6P (glucosamine-6-phosphate [1]): 3.93e-05 ± 1.2e-05 s⁻¹
self-cleavage kobs at 2500 uM GlcN6P (glucosamine-6-phosphate [2]): 0.000112 ± 3e-05 s⁻¹

A15G G66U C71U
self-cleavage kobs at 640 uM GlcN6P (glucosamine-6-phosphate [1]): 0.000559 ± 0.00011 s⁻¹
self-cleavage kobs at 2500 uM GlcN6P (glucosamine-6-phosphate [2]): 0.00142 ± 0.00041 s⁻¹

C34A U46C A53G G60C C61A
self-cleavage kobs at 640 uM GlcN6P (glucosamine-6-phosphate [1]): < 1e-05 s⁻¹
self-cleavage kobs at 2500 uM GlcN6P (glucosamine-6-phosphate [2]): < 1e-05 s⁻¹

G43A A48G A53U G62C
self-cleavage kobs at 640 uM GlcN6P (glucosamine-6-phosphate [1]): < 1e-05 s⁻¹

A15G C16A C58A A64U C70U
self-cleavage kobs at 640 uM GlcN6P (glucosamine-6-phosphate [1]): 8e-05 ± 1.9e-05 s⁻¹

A12G G29A A36G U49C U57G C70A
self-cleavage kobs at 640 uM GlcN6P (glucosamine-6-phosphate [1]): < 1e-05 s⁻¹

A6C A42C C50A U54G G59C C61U
self-cleavage kobs at 640 uM GlcN6P (glucosamine-6-phosphate [1]): < 1e-05 s⁻¹

C8A G9C G37C
self-cleavage kobs at 640 uM GlcN6P (glucosamine-6-phosphate [1]): < 1e-05 s⁻¹

A36G U47G
self-cleavage kobs at 640 uM GlcN6P (glucosamine-6-phosphate [1]): < 1e-05 s⁻¹
self-cleavage kobs at 10000 uM GlcN6P (glucosamine-6-phosphate [3]): < 1e-05 s⁻¹

A12G G32U G44C G60A C70G
self-cleavage kobs at 640 uM GlcN6P (glucosamine-6-phosphate [1]): < 1e-05 s⁻¹

C8A U55G A64U
self-cleavage kobs at 640 uM GlcN6P (glucosamine-6-phosphate [1]): < 1e-05 s⁻¹
self-cleavage kobs at 2500 uM GlcN6P (glucosamine-6-phosphate [2]): < 1e-05 s⁻¹

A14C G59C C71A
self-cleavage kobs at 640 uM GlcN6P (glucosamine-6-phosphate [1]): < 1e-05 s⁻¹

A6G C11A G59U G60C
self-cleavage kobs at 640 uM GlcN6P (glucosamine-6-phosphate [1]): < 1e-05 s⁻¹
